Data reported in article PMC9482650, “Quantitative fragmentomics allow affinity mapping of interactomes” (Nature Communications, 2022).
Where a chain is given by its changes, count along the chain named.

T1: GRIP1_5, Q9Y3R0
T1 sequence (Q9Y3R0 568-668, limits assumed, looked up): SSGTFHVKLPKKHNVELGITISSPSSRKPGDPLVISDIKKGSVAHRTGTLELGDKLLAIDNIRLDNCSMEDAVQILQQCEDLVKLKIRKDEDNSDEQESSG

T2: CARD11, Q9BXL7
T2 sequence (Q9BXL7 662-765, limits assumed, looked up): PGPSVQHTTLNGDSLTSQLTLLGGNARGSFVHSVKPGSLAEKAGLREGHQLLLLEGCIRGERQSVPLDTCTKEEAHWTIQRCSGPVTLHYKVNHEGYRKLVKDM

T3: LIN7B, Q9HAP6
T3 sequence (Q9HAP6 88-185, limits assumed, looked up): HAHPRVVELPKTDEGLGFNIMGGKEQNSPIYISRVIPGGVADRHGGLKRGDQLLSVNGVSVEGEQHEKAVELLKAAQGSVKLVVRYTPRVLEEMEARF

T4: APBA3_1, O96018
T4 sequence (O96018 389-490, limits assumed, looked up): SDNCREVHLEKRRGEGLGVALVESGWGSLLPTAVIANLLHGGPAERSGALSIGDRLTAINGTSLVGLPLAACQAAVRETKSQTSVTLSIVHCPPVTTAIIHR

T5: MPP7, Q5T2T1
T5 sequence (Q5T2T1 134-230, limits assumed, looked up): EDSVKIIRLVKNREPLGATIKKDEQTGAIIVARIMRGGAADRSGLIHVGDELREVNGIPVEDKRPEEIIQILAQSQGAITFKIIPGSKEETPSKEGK

T6: MPDZ_5, O75970
T6 sequence (O75970 695-796, limits assumed, looked up): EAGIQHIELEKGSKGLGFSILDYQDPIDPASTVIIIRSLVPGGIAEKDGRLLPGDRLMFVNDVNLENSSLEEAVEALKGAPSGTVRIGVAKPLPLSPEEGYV

T7: MPDZ_10, O75970
T7 sequence (O75970 1624-1722, limits assumed, looked up): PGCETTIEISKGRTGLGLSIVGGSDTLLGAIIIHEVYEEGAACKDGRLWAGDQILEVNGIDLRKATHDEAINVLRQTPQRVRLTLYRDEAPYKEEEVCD

T8: GRIP1_2, Q9Y3R0
T8 sequence (Q9Y3R0 145-248, limits assumed, looked up): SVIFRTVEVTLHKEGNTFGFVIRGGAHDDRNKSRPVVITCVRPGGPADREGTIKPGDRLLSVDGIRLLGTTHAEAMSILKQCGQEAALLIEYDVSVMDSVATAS

T9: LIN7A, O14910
T9 sequence (O14910 103-200, limits assumed, looked up): T3 sequence (Q9HAP6 88-185, limits assumed, looked up) with A2S, I20V, V35I, D42E, Q65H, Q77K, G78D, R89K

T10: PARD3B_1, Q8TEW8
T10 sequence (Q8TEW8 196-299, limits assumed, looked up): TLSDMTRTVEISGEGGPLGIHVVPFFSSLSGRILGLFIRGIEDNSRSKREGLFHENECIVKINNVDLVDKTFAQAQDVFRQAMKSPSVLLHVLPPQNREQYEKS

T11: GRIP1_4, Q9Y3R0
T11 sequence (Q9Y3R0 467-571, limits assumed, looked up): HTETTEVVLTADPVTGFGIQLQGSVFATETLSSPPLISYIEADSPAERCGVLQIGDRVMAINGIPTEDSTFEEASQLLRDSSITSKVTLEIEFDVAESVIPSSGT


biological target: GRIP2_7, Q9C0E4; assay: holdup assay; design: key: below the threshold = too weak to quantify, mostly under pKd 3.1 to 4; settings: plain residues with an end cap or a label only (N-terminal biotin on a linker: ahx)
Sequence (Q9C0E4 934-1023): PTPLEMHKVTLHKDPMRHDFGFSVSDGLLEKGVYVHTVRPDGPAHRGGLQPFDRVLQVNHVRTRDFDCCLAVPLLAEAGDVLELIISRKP

| Binder | pKd |
| --- | --- |
| PKMKLNETSF [SHKBP1, Q8TBC3] | below the threshold |
| ADENEQVSAV [RAPGEF6, Q8TEU7] | below the threshold |

biological target: LNX1_2, Q8TBB1; assay: holdup assay; design: key: below the threshold = too weak to quantify, mostly under pKd 3.1 to 4; settings: plain residues with an end cap or a label only (N-terminal biotin on a linker: ahx)
Sequence (Q8TBB1 371-470): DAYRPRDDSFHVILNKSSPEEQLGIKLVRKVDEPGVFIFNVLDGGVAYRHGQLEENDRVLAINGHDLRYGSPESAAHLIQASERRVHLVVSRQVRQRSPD

| Binder | pKd |
| --- | --- |
| PKMKLNETSF [SHKBP1, Q8TBC3] | below the threshold |
| ADENEQVSAV [RAPGEF6, Q8TEU7] | below the threshold |

biological target: DLG1_2, Q12959; assay: holdup assay; design: key: below the threshold = too weak to quantify, mostly under pKd 3.1 to 4; settings: plain residues with an end cap or a label only (N-terminal biotin on a linker: ahx)
Sequence (Q12959 314-412): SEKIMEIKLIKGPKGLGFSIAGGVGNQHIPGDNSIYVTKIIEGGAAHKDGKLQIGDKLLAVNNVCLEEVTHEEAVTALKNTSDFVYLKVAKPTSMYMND

| Binder | pKd |
| --- | --- |
| PKMKLNETSF [SHKBP1, Q8TBC3] | below the threshold |
| ADENEQVSAV [RAPGEF6, Q8TEU7] | 4.01 |

biological target: Inadl_8, Q8NI35; assay: holdup assay; design: key: below the threshold = too weak to quantify, mostly under pKd 3.1 to 4; settings: plain residues with an end cap or a label only (N-terminal biotin on a linker: ahx)
Sequence (Q8NI35 1425-1530): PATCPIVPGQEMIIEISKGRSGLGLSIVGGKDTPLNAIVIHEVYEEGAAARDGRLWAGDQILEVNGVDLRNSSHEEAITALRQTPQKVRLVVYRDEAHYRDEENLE

| Binder | pKd |
| --- | --- |
| PKMKLNETSF [SHKBP1, Q8TBC3] | below the threshold |
| ADENEQVSAV [RAPGEF6, Q8TEU7] | 3.86 |

biological target: T1, GRIP1_5, Q9Y3R0; assay: holdup assay; design: key: below the threshold = too weak to quantify, mostly under pKd 3.1 to 4; settings: plain residues with an end cap or a label only (N-terminal biotin on a linker: ahx)

| Binder | pKd |
| --- | --- |
| PKMKLNETSF [SHKBP1, Q8TBC3] | below the threshold |
| ADENEQVSAV [RAPGEF6, Q8TEU7] | below the threshold |

biological target: T2, CARD11, Q9BXL7; assay: holdup assay; design: key: below the threshold = too weak to quantify, mostly under pKd 3.1 to 4; settings: plain residues with an end cap or a label only (N-terminal biotin on a linker: ahx)

| Binder | pKd |
| --- | --- |
| PKMKLNETSF [SHKBP1, Q8TBC3] | below the threshold |
| ADENEQVSAV [RAPGEF6, Q8TEU7] | below the threshold |

biological target: T3, LIN7B, Q9HAP6; assay: holdup assay; design: key: below the threshold = too weak to quantify, mostly under pKd 3.1 to 4; settings: plain residues with an end cap or a label only (N-terminal biotin on a linker: ahx)

| Binder | pKd |
| --- | --- |
| PKMKLNETSF [SHKBP1, Q8TBC3] | below the threshold |
| ADENEQVSAV [RAPGEF6, Q8TEU7] | below the threshold |

biological target: T4, APBA3_1, O96018; assay: holdup assay; design: key: below the threshold = too weak to quantify, mostly under pKd 3.1 to 4; settings: plain residues with an end cap or a label only (N-terminal biotin on a linker: ahx)

| Binder | pKd |
| --- | --- |
| PKMKLNETSF [SHKBP1, Q8TBC3] | below the threshold |
| ADENEQVSAV [RAPGEF6, Q8TEU7] | below the threshold |

biological target: MAGI2_6, Q86UL8; assay: holdup assay; design: key: below the threshold = too weak to quantify, mostly under pKd 3.1 to 4; settings: plain residues with an end cap or a label only (N-terminal biotin on a linker: ahx)
Sequence (Q86UL8 1141-1229): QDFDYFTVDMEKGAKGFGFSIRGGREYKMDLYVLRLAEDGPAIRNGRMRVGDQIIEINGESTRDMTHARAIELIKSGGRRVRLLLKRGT

| Binder | pKd |
| --- | --- |
| PKMKLNETSF [SHKBP1, Q8TBC3] | 3.54 |
| ADENEQVSAV [RAPGEF6, Q8TEU7] | 4.19 |

biological target: NHERF4_2, Q86UT5; assay: holdup assay; design: key: below the threshold = too weak to quantify, mostly under pKd 3.1 to 4; settings: plain residues with an end cap or a label only (N-terminal biotin on a linker: ahx)
Sequence (Q86UT5 220-308): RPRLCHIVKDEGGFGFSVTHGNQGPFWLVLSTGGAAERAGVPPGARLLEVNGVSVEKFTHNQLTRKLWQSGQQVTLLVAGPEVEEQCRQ

| Binder | pKd |
| --- | --- |
| PKMKLNETSF [SHKBP1, Q8TBC3] | below the threshold |
| ADENEQVSAV [RAPGEF6, Q8TEU7] | below the threshold |

biological target: T5, MPP7, Q5T2T1; assay: holdup assay; design: key: below the threshold = too weak to quantify, mostly under pKd 3.1 to 4; settings: plain residues with an end cap or a label only (N-terminal biotin on a linker: ahx)

| Binder | pKd |
| --- | --- |
| PKMKLNETSF [SHKBP1, Q8TBC3] | below the threshold |
| ADENEQVSAV [RAPGEF6, Q8TEU7] | below the threshold |

biological target: T6, MPDZ_5, O75970; assay: holdup assay; design: key: below the threshold = too weak to quantify, mostly under pKd 3.1 to 4; settings: plain residues with an end cap or a label only (N-terminal biotin on a linker: ahx)

| Binder | pKd |
| --- | --- |
| PKMKLNETSF [SHKBP1, Q8TBC3] | below the threshold |
| ADENEQVSAV [RAPGEF6, Q8TEU7] | below the threshold |

biological target: MAGI1_1, Q96QZ7; assay: holdup assay; design: key: below the threshold = too weak to quantify, mostly under pKd 3.1 to 4; settings: plain residues with an end cap or a label only (N-terminal biotin on a linker: ahx)
Sequence (Q96QZ7 1-106): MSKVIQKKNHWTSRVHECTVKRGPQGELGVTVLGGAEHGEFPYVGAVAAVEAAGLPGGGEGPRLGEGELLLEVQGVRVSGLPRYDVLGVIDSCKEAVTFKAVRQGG

| Binder | pKd |
| --- | --- |
| PKMKLNETSF [SHKBP1, Q8TBC3] | below the threshold |
| ADENEQVSAV [RAPGEF6, Q8TEU7] | below the threshold |

biological target: Inadl_6, Q8NI35; assay: holdup assay; design: key: below the threshold = too weak to quantify, mostly under pKd 3.1 to 4; settings: plain residues with an end cap or a label only (N-terminal biotin on a linker: ahx)
Sequence (Q8NI35 1058-1167): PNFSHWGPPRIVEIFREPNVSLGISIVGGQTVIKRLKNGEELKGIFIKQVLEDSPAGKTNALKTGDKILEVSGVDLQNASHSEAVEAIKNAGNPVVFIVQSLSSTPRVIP

| Binder | pKd |
| --- | --- |
| PKMKLNETSF [SHKBP1, Q8TBC3] | below the threshold |
| ADENEQVSAV [RAPGEF6, Q8TEU7] | 3.59 |

biological target: T7, MPDZ_10, O75970; assay: holdup assay; design: key: below the threshold = too weak to quantify, mostly under pKd 3.1 to 4; settings: plain residues with an end cap or a label only (N-terminal biotin on a linker: ahx)

| Binder | pKd |
| --- | --- |
| PKMKLNETSF [SHKBP1, Q8TBC3] | below the threshold |
| ADENEQVSAV [RAPGEF6, Q8TEU7] | below the threshold |

biological target: T8, GRIP1_2, Q9Y3R0; assay: holdup assay; design: key: below the threshold = too weak to quantify, mostly under pKd 3.1 to 4; settings: plain residues with an end cap or a label only (N-terminal biotin on a linker: ahx)

| Binder | pKd |
| --- | --- |
| PKMKLNETSF [SHKBP1, Q8TBC3] | below the threshold |
| ADENEQVSAV [RAPGEF6, Q8TEU7] | below the threshold |

biological target: MAGI2_2, Q86UL8; assay: holdup assay; design: key: below the threshold = too weak to quantify, mostly under pKd 3.1 to 4; settings: plain residues with an end cap or a label only (N-terminal biotin on a linker: ahx)
Sequence (Q86UL8 410-522): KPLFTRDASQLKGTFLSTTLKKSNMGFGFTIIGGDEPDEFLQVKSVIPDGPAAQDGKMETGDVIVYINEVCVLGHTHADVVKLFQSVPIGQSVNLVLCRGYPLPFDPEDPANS

| Binder | pKd |
| --- | --- |
| PKMKLNETSF [SHKBP1, Q8TBC3] | below the threshold |
| ADENEQVSAV [RAPGEF6, Q8TEU7] | below the threshold |

biological target: FRMPD2_3, Q68DX3; assay: holdup assay; design: key: below the threshold = too weak to quantify, mostly under pKd 3.1 to 4; settings: plain residues with an end cap or a label only (N-terminal biotin on a linker: ahx)
Sequence (Q68DX3 1073-1166): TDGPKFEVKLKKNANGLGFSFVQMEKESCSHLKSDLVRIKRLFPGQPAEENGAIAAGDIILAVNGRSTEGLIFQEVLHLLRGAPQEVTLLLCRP

| Binder | pKd |
| --- | --- |
| PKMKLNETSF [SHKBP1, Q8TBC3] | below the threshold |
| ADENEQVSAV [RAPGEF6, Q8TEU7] | below the threshold |

biological target: T9, LIN7A, O14910; assay: holdup assay; design: key: below the threshold = too weak to quantify, mostly under pKd 3.1 to 4; settings: plain residues with an end cap or a label only (N-terminal biotin on a linker: ahx)

| Binder | pKd |
| --- | --- |
| PKMKLNETSF [SHKBP1, Q8TBC3] | below the threshold |
| ADENEQVSAV [RAPGEF6, Q8TEU7] | below the threshold |

biological target: T10, PARD3B_1, Q8TEW8; assay: holdup assay; design: key: below the threshold = too weak to quantify, mostly under pKd 3.1 to 4; settings: plain residues with an end cap or a label only (N-terminal biotin on a linker: ahx)

| Binder | pKd |
| --- | --- |
| PKMKLNETSF [SHKBP1, Q8TBC3] | below the threshold |
| ADENEQVSAV [RAPGEF6, Q8TEU7] | below the threshold |

biological target: GRIP2_6, Q9C0E4; assay: holdup assay; design: key: below the threshold = too weak to quantify, mostly under pKd 3.1 to 4; settings: plain residues with an end cap or a label only (N-terminal biotin on a linker: ahx)
Sequence (Q9C0E4 648-740): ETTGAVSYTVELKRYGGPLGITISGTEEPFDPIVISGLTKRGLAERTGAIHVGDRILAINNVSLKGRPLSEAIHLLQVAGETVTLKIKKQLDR

| Binder | pKd |
| --- | --- |
| PKMKLNETSF [SHKBP1, Q8TBC3] | below the threshold |
| ADENEQVSAV [RAPGEF6, Q8TEU7] | below the threshold |

biological target: GIPC2, Q8TF65; assay: holdup assay; design: key: below the threshold = too weak to quantify, mostly under pKd 3.1 to 4; settings: plain residues with an end cap or a label only (N-terminal biotin on a linker: ahx)
Sequence (Q8TF65 112-203): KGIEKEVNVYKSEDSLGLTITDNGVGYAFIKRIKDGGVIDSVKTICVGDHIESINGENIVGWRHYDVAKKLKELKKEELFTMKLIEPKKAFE

| Binder | pKd |
| --- | --- |
| PKMKLNETSF [SHKBP1, Q8TBC3] | below the threshold |
| ADENEQVSAV [RAPGEF6, Q8TEU7] | below the threshold |

biological target: T11, GRIP1_4, Q9Y3R0; assay: holdup assay; design: key: below the threshold = too weak to quantify, mostly under pKd 3.1 to 4; settings: plain residues with an end cap or a label only (N-terminal biotin on a linker: ahx)

| Binder | pKd |
| --- | --- |
| PKMKLNETSF [SHKBP1, Q8TBC3] | below the threshold |
| ADENEQVSAV [RAPGEF6, Q8TEU7] | below the threshold |

biological target: DLG2_2, Q15700; assay: holdup assay; design: key: below the threshold = too weak to quantify, mostly under pKd 3.1 to 4; settings: plain residues with an end cap or a label only (N-terminal biotin on a linker: ahx)
Sequence (Q15700 189-283): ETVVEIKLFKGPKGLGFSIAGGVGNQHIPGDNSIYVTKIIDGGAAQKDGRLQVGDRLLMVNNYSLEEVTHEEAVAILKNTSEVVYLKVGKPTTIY

| Binder | pKd |
| --- | --- |
| PKMKLNETSF [SHKBP1, Q8TBC3] | below the threshold |
| ADENEQVSAV [RAPGEF6, Q8TEU7] | 3.57 |

biological target: TJP2_1, Q9UDY2; assay: holdup assay; design: key: below the threshold = too weak to quantify, mostly under pKd 3.1 to 4; settings: plain residues with an end cap or a label only (N-terminal biotin on a linker: ahx)
Sequence (Q9UDY2 24-128): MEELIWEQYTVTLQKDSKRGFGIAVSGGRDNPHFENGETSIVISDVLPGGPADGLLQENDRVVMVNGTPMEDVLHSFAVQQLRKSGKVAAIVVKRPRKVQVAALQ

| Binder | pKd |
| --- | --- |
| PKMKLNETSF [SHKBP1, Q8TBC3] | below the threshold |
| ADENEQVSAV [RAPGEF6, Q8TEU7] | below the threshold |
